Experiments:
[1] = biological target: T1, HCoV-229E spike antigens (bead panel) (HCoV-229E, UniProt P15423 16-1115); assay: multiplex bead assay
T1 sequence: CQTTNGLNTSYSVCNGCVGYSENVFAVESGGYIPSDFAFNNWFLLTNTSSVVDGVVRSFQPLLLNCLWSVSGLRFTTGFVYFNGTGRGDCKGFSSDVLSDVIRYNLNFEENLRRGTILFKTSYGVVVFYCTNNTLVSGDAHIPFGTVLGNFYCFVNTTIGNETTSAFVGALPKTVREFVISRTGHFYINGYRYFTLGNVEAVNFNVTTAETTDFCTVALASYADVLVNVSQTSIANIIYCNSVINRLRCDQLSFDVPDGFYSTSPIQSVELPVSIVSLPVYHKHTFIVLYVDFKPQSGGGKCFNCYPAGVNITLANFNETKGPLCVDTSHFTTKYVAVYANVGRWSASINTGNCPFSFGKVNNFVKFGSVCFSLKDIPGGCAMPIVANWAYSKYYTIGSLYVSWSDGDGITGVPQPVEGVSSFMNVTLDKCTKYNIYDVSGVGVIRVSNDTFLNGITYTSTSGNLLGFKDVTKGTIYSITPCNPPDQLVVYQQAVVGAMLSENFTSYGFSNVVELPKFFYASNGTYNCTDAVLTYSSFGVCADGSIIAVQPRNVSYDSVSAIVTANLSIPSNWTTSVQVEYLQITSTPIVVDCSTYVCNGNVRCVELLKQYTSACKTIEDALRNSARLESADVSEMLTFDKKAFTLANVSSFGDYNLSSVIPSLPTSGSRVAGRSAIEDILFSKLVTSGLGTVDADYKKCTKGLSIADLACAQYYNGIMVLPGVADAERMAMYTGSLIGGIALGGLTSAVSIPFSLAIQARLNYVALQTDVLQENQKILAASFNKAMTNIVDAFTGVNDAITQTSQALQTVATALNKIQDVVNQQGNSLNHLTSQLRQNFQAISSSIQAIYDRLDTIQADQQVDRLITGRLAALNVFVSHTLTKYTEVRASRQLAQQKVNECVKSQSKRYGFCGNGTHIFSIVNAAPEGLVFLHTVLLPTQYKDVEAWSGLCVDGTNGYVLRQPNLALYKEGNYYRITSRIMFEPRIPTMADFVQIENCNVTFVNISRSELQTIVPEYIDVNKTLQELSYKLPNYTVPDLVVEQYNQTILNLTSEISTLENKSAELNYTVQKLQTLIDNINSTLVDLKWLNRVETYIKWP

[2] = biological target: T2, HCoV-NL63 spike antigens (bead panel) (HCoV-NL63, UniProt Q6Q1S2 19-1296); assay: multiplex bead assay
T2 sequence: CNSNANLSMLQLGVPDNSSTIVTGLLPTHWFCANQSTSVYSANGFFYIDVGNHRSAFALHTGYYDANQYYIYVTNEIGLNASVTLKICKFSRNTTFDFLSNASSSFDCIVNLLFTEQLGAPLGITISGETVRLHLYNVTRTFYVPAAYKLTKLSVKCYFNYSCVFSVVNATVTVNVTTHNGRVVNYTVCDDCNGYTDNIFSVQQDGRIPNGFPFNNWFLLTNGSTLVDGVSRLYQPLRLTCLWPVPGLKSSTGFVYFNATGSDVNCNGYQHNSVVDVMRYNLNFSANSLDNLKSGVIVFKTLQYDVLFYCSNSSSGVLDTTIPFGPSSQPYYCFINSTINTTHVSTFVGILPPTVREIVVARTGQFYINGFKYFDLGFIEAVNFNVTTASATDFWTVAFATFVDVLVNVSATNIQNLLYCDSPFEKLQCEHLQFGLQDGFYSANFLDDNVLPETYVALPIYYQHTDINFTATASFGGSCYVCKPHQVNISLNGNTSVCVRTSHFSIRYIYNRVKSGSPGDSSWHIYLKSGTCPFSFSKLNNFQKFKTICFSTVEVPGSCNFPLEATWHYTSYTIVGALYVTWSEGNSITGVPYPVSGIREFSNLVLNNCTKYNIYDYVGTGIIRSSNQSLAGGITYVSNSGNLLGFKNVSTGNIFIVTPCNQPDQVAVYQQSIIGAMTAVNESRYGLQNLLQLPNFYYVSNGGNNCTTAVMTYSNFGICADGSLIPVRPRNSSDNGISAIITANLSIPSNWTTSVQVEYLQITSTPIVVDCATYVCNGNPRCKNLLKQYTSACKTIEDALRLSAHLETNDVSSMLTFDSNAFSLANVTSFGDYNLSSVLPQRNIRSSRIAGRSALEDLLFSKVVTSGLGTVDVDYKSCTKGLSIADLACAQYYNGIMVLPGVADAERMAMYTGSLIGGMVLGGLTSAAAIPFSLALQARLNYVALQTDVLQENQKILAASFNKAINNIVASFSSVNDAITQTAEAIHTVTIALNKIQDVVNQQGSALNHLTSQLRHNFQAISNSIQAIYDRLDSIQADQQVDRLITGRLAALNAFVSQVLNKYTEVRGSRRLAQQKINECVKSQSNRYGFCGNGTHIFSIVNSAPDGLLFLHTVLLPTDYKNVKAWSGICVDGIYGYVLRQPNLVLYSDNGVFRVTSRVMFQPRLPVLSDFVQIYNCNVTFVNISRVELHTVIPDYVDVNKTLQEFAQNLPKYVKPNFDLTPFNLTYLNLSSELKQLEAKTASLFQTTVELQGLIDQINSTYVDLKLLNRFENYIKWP

B1: COV_2057 (antibody, V domains shown)
VH: EVQLVQSGAEVKKPGESLKISCKGSGYSFISYWIAWVRQMPGKGLEWMGIIYPGDSDTTYSPSFQGQVTISADKSISTAYLQWSSLKASDTAIYYCARLLYYSDSSPLDSWGQGTLVTVSS
VL: DIQMTQSPSSLSASVGDRVTITCRASQSISTYLNWYQQKPGKAPNLLIYAASSLQSGVPSRFSGSGSGTDFTLTISSLQPEDFATYYCQQSHSTPRTFGPGTKVDIK
notes: human IgG1
[1]
  binding result: no binding
[2]
  binding result: no binding

B2: COV_2014 (antibody, V domains shown)
VH: QVQLVQSGAEVKKPGASVKVSCKVSGYTLTELSMHWVRQAPGKGLEWMGGFDPEDGETIYAQKFQGRVTMTEDTSTDTAYMELSSLRSEDTAVYYCATGKINYYDSSGYYGTFDYWGQGTLVTVSS
VL: AIQLTQSPSSLSASVGDRVTITCRASQGISSYLAWYQQKPGKAPKLLIYAASTLQSGVPSRFSGSGSGTDFTLTISSLQPEDFATYYCQQLNSYHLTFGQGTRLEIK
notes: human IgG1
[1]
  binding result: no binding
[2]
  binding result: no binding

B3: COV_2172 (SEQ ID NO:872/877) (antibody, V domains shown)
VH: EVQLVESGGGVVQPGRSLRLSCAPSGFTFSTYAMHWVRQAPGKGLEWVAVISYDGSIKYYADSVKGRFTISRDNTMNTVFLQMNSLRAEDTAVYFCAKGGERWELFTSFDYWGQGTQVTVSS
VL: QSALTQPRSVSGSPGQSVTISCTGTSSDVGGYNYVSWYQQHPGKAPKLMIYDVSKRPSGVPDRFSGSKSGNTASLTISGLQAEDEADYYCCSYAGSYTFVFGGGTKLTVLG
[1]
  binding result: no binding
[2]
  binding result: no binding

B4: COV_2037 (antibody, V domains shown)
VH: QVQLVQSGAEVKKPGASVKVSCKVSGYTLTELSMHWVRQAPGKGLEWMGGFDPEDAETIYAQKFQGRVTMTEDTSTDTAYMELSSLRSEDTAVYYCATAGAITGTPTNYSYYYGMDFWGQGTTVTVSS
VL: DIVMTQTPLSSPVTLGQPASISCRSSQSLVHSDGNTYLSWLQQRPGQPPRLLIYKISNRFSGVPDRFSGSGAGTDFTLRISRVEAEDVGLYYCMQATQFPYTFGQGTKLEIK
notes: human IgG1
[1]
  binding result: no binding
[2]
  binding result: no binding

B5: COV_2054 (antibody, V domains shown)
VH: EVQLVESGGGVLQPGRSLRLSCAASGFTFNNYALHWVRQAPGKGLEWVAVISYDGSSKYYADSVRGRLTISRDNSRNTLYLQMNSLRPEDTAIYYCARDGDGLWLGESFYFDDWGQGTLVTVSS
VL: DIQMTQSPSTLSASVGDRVIITCRASQSISSWLAWYQQKPGKAPKLLIYEASTLQSGVPSRFSGSGSGTEFTLTISSLQPDDSATYYCQQYNSYPVHFSQGTKLEIK
notes: human IgG1
[1]
  binding result: no binding
[2]
  binding result: no binding

B6: COV_3077 (antibody, V domains shown)
VH: QVQLQESGPGLVKPSETLSLTCAVSGYSISSGYYWGWIRQPPGKGLEWIGSIYHSGSTYYNPSLKSRVTISVDTSKNQFSLKLSSVTAADTAVYYCARALYDAFDIWGQGTMVTVSS
VL: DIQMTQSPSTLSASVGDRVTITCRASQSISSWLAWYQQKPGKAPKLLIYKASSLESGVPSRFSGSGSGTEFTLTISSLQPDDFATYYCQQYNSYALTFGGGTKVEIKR
notes: human IgG1
[1]
  binding result: no binding
[2]
  binding result: no binding

B7: COV_2143 (antibody, V domains shown)
VH: EVQLVESGGGVVQPGRSLRLSCAASGFTFNSFAMLWVRQAPGKGLEWVALFSYDGSNKYYADSVKGRFTISRDNSKNTLYLQMNNLRAVDTAVYYCARASPYDINGYYLHRIAFDIWGQGTMVTVSS
VL: QSVLMQPPSVSGAPGQRVTISCTGSSSNIGAGYDVHWYQQLPGTAPKLLMYGNSNRPSGVPDRFSGSKSGTSASLAITGLQAEDEADYYCQSYDSGLSGWVFGGGTKLTVLG
notes: human IgG1
[1]
  binding result: no binding
[2]
  binding result: no binding

B8: COV_2035 (antibody, V domains shown)
VH: QVQLVQSGAEVKKPGASVKVSCKVSGYTLPELSIHWVRQAPGKGLEWLGGFDPEDGKIIYAQKFQGRVTMTEDTSTDTAYMELSSLRSEDTAVYYCATSPAVVERGWFDPWGQGTLVTVSS
VL: QSALTQPPSASGSPGQSVTISCTGTSSDVGGYNYVSWYQQHPGKAPKLMIYEVSKRPSGVPDRFSGSKSGNMASLTVSGLQAEDEANYYCSSYAGSKRVFGGGTKLTVL
notes: human IgG1
[1]
  binding result: no binding
[2]
  binding result: no binding

B9: COV_2174 (antibody, V domains shown)
VH: EVQLAESGGGLVKPGGSLRLSCAASGFTFSDYYMSWIRQAPGKGLEWVSYISSSGSTIYYADSVKGRFTISRDNAKNSLYLQMNSLRAEDTAVYYCARDWSVVVVPAAPAVDVWGQGTTVTVSS
VL: DIQMTQSPSSLSASVGDRVTITCRASQGISNYLAWFQQKPGKAPKSLIYAASSLQSGVPSKFSGSGSGTDFTLTISSLQPEDFATYYCQQYNSYPLTFGGGTKVEIKR
notes: human IgG1
[1]
  binding result: no binding
[2]
  binding result: no binding

B10: COV_2027 (antibody, V domains shown)
VH: EVQLVESGGGLIQPGGSLRLSCAASGFSVSTNYMSWVRQAPGKGLEWVSIIYSGGGTYYADSVKGRFTISRDTSENTLYLQMNSLRAEDTAVYYCASFLVGATGQPWYWGQGTLVTVSS
VL: not shown
notes: human IgG1
[1]
  binding result: no binding
[2]
  binding result: no binding

B11: COV_2028 (antibody, V domains shown)
VH: QVQLQESGPGLVKPSGTLSLTCVVSGGSISSSNWWSWVRQPPGKGLEWIGEIYHSGSTNYNPSLKSRVTISVDKSKNQFSLRLTSVTAADTAVYYCARGWNYDYWGQGTLVTVSS
VL: QSALTQPASVSGSPGQSITIACTGTSSDVGSYNLVSWYQQHPGKAPKLMIYEVSKRPSGLSNRFSGSKSGNTASLTISGLQAEDEADYYCYSYAGSSTWVFGGGTKLTVL
notes: human IgG1
[1]
  binding result: no binding
[2]
  binding result: no binding

B12: COV_2025 (antibody, V domains shown)
VH: QVHLVQSGAEVKKPGASVKVSCKVSGYTLVELSVHWVRQAPAKGLEWIGGFDPEDGETIYAQKFQGRVTMTEDTSTDTAYMELTNLRSEDTAVYYCVTSQPFVSPNWFDPWGQGTLVTVSS
VL: QSALTQPASVSGSPGQSITISCTGTSRDVGAYNYVSWYQQHPGKAPKLMIYEVTTRPSGVSNRFSGSKSGNTASLTISGLQAEDEADYYCSSYTGSRTLVFGTGTKVTVL
notes: human IgG1
[1]
  binding result: no binding
[2]
  binding result: no binding

B13: COV_2039 (antibody, V domains shown)
VH: QVQLVQSGAEVKKPGASVKVSCKVSGYMLIELSMHWVRQAPGKGLEWMGGFDPEDAETIYAQEFQGRVTMTEDTSTDTAYMELSSLRSEDTAVYYCTTGPAVTNRPADYWGPGTLVTVSS
VL: QSVLTQPPSVSGAPGQRVTISCTGSSSNIGASYDVHWYQQLPGTAPKLLIYANSNRPSGVPDRFSGSKSGTSASLAITGLQAEDEADYYCQSYDSSLSYSVVFGGGTKLTVL
notes: human IgG1
[1]
  binding result: no binding
[2]
  binding result: no binding
